What was measured:
[1] = system: Beas-2B cell line; assay: MTT cytotoxicity assay of ECP; format: cell-based, human; settings: 37° C. 48 h, read-out: IC50 for cytotoxic ECP
Method: FIG. 12. Cytotoxicity of wild-type and mutant ECP. Beas-2B cells were incubated with increasing concentrations of wild-type and mt1 ECP at 37° C. for 48 h, followed by the MTT assay. The error bars show standard deviation among triplicate experiments.
The inhibition of lymphocyte and mammalian cell growth by ECP has been reported (Fan, T. C., et al. (2007) Traffic 8, 1778-1795; Maeda, T., et al. (2002) European Journal of Biochemistry 269, 307-316). As a physiological test, the cytotoxicity of ECP mt1 was monitored by MTT assay. The effect of ECP on the cell growth was determined by a colorimetric assay using 3-(4,5-dimethylthiazol-2-yl)-2,5-diphenyltetrazolium bromide (MTT) (US Biological, MA, USA). Cells were plated in a 96-well plate (5000 cells/well) and incubated at 37° C. overnight. Each sample was incubated with the indicated concentration (1-100 μM) of ECP. Forty-eight hours after treatment with ECP, MTT was added, and cell growth was monitored at A570 to measure the mitochondrial-dependent formation of a colored product.

[2] = system: Beas-2B cells; assay: Cell ELISA of MBP-ECP and MBP-ECP mt1 binding to cells; format: cell-based, human; settings: MBP-ECP mt1 relative to MBP-ECP; 1 h at 4° C.

B1: ECP mt1: ECP mutant with R34A/W35A/R36A/K38A substitutions (protein, UniProt P12724 28-160, looked up, variant R34A W35A R36A K38A)
Eosinophil cationic protein: RPPQFTRAQWFAIQHISLNPPRCTIAMRAINNYAAACANQNTFLRTTFANVVNVCGNQSIRCPHNRTLNNCHRSRFRVPLLHCDLINPGAQNISNCTYADRPGRRFYVVACDNRDPRDSPRYPVVPVHLDTTI
Molecule B1 has an IC50 [1] of 38.5 µM and a cell-binding activity [2] of 50%.

From patent publication US8399416B2, “Method of using heparin binding motif for treating asthma” (National Tsing Hua University, priority 2008, dated 2013)
